Data on 1 substance can be found in publication PMC10914790.

Common to all, as to assay: MST; Clr4 constructs fluorescently labelled (BLUE-NHS), H3KC9me3 nucleosomes added at 8 nM to 2.5 μM; 10 mM Tris–HCl pH 7.5, 150 mM NaCl, 0.5 mM DTT, 0.05% Tween-20; 40% MST power, 80% LED; five runs
The target of test [1] is full-length Clr4 (Cryptic loci regulator protein 4), H3K9 methyltransferase (S. pombe) (UniProt O60016).
Test [2] concerns the target Clr4 chromodomain construct (S. pombe) (UniProt O60016).
The target in test [3] is Clr4 CD-deleted construct (S. pombe).

For “H3KC9me3 nucleosome (H3K9 trimethyl-lysine analog nucleosome) (complex)”, the Kd in test [1] came to 541 nM; in test [2] it was 310 nM; in test [3] it was 422 nM.

The term Kd denotes the constant that tells how readily two partners part at equilibrium. The low end stands for higher affinity, the high end for lower affinity.
